Reference: EP0983376B1, “SCREENING ASSAYS FOR AGENTS THAT ALTER INHIBITOR OF APOPTOSIS (IAP) PROTEIN REGULATION OF CASPASE ACTIVITY” (The Burnham Institute, priority 1997, dated 1998)
Values belong to the molecule of their own block, whether it stands above or below them.

B1: GST-c-IAP-1(BIR) (other, human, UniProt Q13490 1-350, looked up)
chain: MHKTASQRLFPGPSYQNIKSIMEDSTILSDWTNSNKQKMKYDFSCELYRMSTYSTFPAGVPVSERSLARAGFYYTGVNDKVKCFCCGLMLDNWKLGDSPIQKHKQLYPSCSFIQNLVSASLGSTSKNTSPMRNSFAHSLSPTLEHSSLFSGSYSSLSPNPLNSRAVEDISSSRTNPYSYAMSTEEARFLTYHMWPLTFLSPSELARAGFYYIGPGDRVACFACGGKLSNWEPKDDAMSEHRRHFPNCPFLENSLETLRFSISNLSMQTHAARMRTFMYWPSSVPVQPEQLASAGFYYVGRNDDVKCFCCDGGLRCWESGDDPWVEHAKWFPRCEFLIRMKGQEFVDEIQG
notes: range 1-350; not shown: glutathione S-transferase encoded by vector pGEX4T; vector linker not described
B2: purified recombinant active caspase-3 (His6-tagged) (enzyme)
chain 1: SGISLDNSYKMDYPEMGLCIIINNKNFHKSTGMTSRSGTDVDAANLRETFRNLKYEVRNKNDLTREEIVELMRDVSKEDHSKRSSFVCVLLSHGEEGIIFGTNGPVDLKKITNFFRGDRCRSLTGKPKLFIIQACRGTELDCGIETD
chain 2: SGVDDDMACHKIPVEADFLYAYSTAPGYYSWRNSKDGSWFIQSLCAMLKQYADKLEFMHILTRVNRKVATEFESFSFDATFHAKKQIPCIVSMLTKELYFYH
notes: domain: large subunit;domain: small subunit; also called His6-caspase-3; CPP32
B3: processed (active) caspase-3 of 293 cell cytosolic extracts treated with cytochrome c and dATP (enzyme, human)
chain 1: B2 chain 1
chain 2: B2 chain 2
notes: domain: large subunit;domain: small subunit; Endogenous protein of the extract, detected with anti-caspase-3 antiserum that sees only the zymogen and the large subunit; also called processed caspase-3; band 3
B4: in vitro translated 35S-labeled pro-caspase-9 (enzyme, UniProt P55211 1-416, looked up)
chain: MDEADRRLLRRCRLRLVEELQVDQLWDALLSRELFRPHMIEDIQRAGSGSRRDQARQLIIDLETRGSQALPLFISCLEDTGQDMLASFLRTNRQAAKLSKPTLENLTPVVLRPEIRKPEVLRPETPRPVDIGSGGFGDVGALESLRGNADLAYILSMEPCGHCLIINNVNFCRESGLRTRTGSNIDCEKLRRRFSSLHFMVEVKGDLTAKKMVLALLELAQQDHGALDCCVVVILSHGCQASHLQFPGAVYGTDGCPVSVEKIVNIFNGTSCPSLGGKPKLFFIQACGGEQKDHGFEVASTSPEDESPGSNPEPDATPFQEGLRTFDQLDAISSLPTPSDIFVSYSTFPGFVSWRDPKSGSWYVETLDDIFEQWAHSEDLQSLLLRVANAVSVKGIYKQMPGCFNFLRKKLFFKTS
modifications: 35S-L-methionine labeled
notes: domain: zymogen; also called zymogen of caspase-9; Mch6
B5: FLAG tagged pro-caspase-9 (enzyme, UniProt P55211 1-416, looked up, not shown: small tags and cut ends)
chain: B4 chain
notes: domain: zymogen; also called Flag-pro-caspase-9; FLAG-caspase-9
B6: GST-CD40 cytosolic domain (other, UniProt P25942 216-277, looked up)
chain: KKVAKKPTNKAPHPKQEPQEINFPDDLPGSNTAAPVQETLHGCQPVTQEDGKESRISVQERQ
notes: domain: cytosolic domain; Control protein; not shown: glutathione S-transferase
B7: GST-c-IAP-2(BIR) (other, human, UniProt Q13489 1-335, looked up)
chain: MNIVENSIFLSNLMKSANTFELKYDLSCELYRMSTYSTFPAGVPVSERSLARAGFYYTGVNDKVKCFCCGLMLDNWKRGDSPTEKHKKLYPSCRFVQSLNSVNNLEATSQPTFPSSVTNSTHSLLPGTENSGYFRGSYSNSPSNPVNSRANQDFSALMRSSYHCAMNNENARLLTFQTWPLTFLSPTDLAKAGFYYIGPGDRVACFACGGKLSNWEPKDNAMSEHLRHFPKCPFIENQLQDTSRYTVSNLSMQTHAARFKTFFNWPSSVLVNPEQLASAGFYYVGNSDDVKCFCCDGGLRCWESGDDPWVQHAKWFPRCEYLIRIKGQEFIRQVQ
notes: range 1-335; not shown: glutathione S-transferase encoded by vector pGEX4T; vector linker not described

Assays:
[1] = test system: pro-caspase-9 processing; assay: Cytochrome c-induced processing of pro-caspase-9 in 293 cell cytosolic extracts; format: biochemical; conditions: 10 µM cytochrome c, 1 mM dATP, 30 °C, 30 minutes
Procedure: For the results shown in Figure 4, in vitro translated ^35S-labeled pro-caspase-9 was added to cytosolic extracts from 293 cells, and subsequently incubated for 30 min at 30 °C with (lanes 2-6) or without (lane 1) 10 µM cytochrome c and 1 mM dATP in the presence or absence of 0.2 µM GST-IAP proteins or a GST control protein. Cytochrome c induced processing of pro-caspase-9 was subsequently monitored by SDS-PAGE and autoradiography.
Pro-caspase-9 inhibition by Ac-DEVD-fmk, zVAD-fmk and XIAP was compared as follows. In vitro translated ^35S-labeled pro-caspase-9 was added to cytosolic extracts from 293 cells containing 10 µM cytochrome c and 1 mM dATP. Samples were incubated at 30 °C for 30 minutes in the presence of the indicated concentrations of inhibitors. Proteins were separated on SDS-PAGE gels, dried directly, and exposed to film.

[2] = test system: 293T cells; assay: Bax-induced apoptosis and caspase-3 processing in transfected 293T cells; format: cell-based, Human; conditions: PI staining, 24 hr; Bax expressing cells treated with 50 µM inhibitor (Bax alone about 25%)
Procedure: N-benzyloxycarbonyl-Val-Ala-Asp fluoromethylketone (zVAD-fmk; 50 µM) (Bachem California; Torrance CA) was added immediately after transfection of the Bax plasmid. Transfection efficiency was uniformly 80-90%, as determined by X-Gal staining following cotransfection with pCMV-βGal.
Cells were maintained in culture for 24 hr, then floating and attached cells were harvested and an aliquot was removed and the percent of dead cells was determined by either trypan blue or propidium iodide (PI) dye exclusion assay. A second aliquot was used to assess the percentage of apoptotic cells with subdiploid DNA content by FACS analysis of PI stained, ethanol fixed cells. The remaining cell pellets were lysed in 10 mM HEPES (pH 7.5), 142 mM KCl, 1 mM EGTA, 1 mM DTT, 0.2% NP-40, 0.1 mM PMSF and used for immunoblot analysis or for protease assays.

[3] = biological target: purified recombinant active caspase-7 (His6-tagged) (UniProt P55210); assay: progress curves of DEVD-AFC hydrolysis by caspase-7 (150 pM) with 0.025 to 1.5 µM IAP
[4] = biological target: B2; assay: progress curves of DEVD-AFC hydrolysis by caspase-3 (7 pM) with 0.025 to 1.5 µM IAP
[5] = biological target: T1, GST-c-IAP-2 (human, UniProt Q13489 1-604); assay: opening sentence of Example IV
T1 construct: domain: full length; also called HIAP-1; hMIHC; not shown: glutathione S-transferase encoded by vector pGEX4T; vector linker not described

[6] = biological target: T2, GST-c-IAP-1 (human, UniProt Q13490 1-618); assay: opening sentence of Example IV
T2 construct: domain: full length; also called HIAP-2; hMIHB; not shown: glutathione S-transferase encoded by vector pGEX4T; vector linker not described

[7] = biological target: B1; assay: glutathione-SEPHAROSE affinity chromatography
[8] = biological target: T1, GST-c-IAP-2; assay: GST-IAP added to 293 extracts previously treated with cytochrome c, recovered on glutathione-Sepharose, anti-caspase-3 immunoblot
[9] = biological target: T2, GST-c-IAP-1; assay: as above
[10] = biological target: T1, GST-c-IAP-2; assay: opening sentence of Example VI
[11] = biological target: T2, GST-c-IAP-1; assay: opening sentence of Example VI
[12] = biological target: T3, myc-tagged c-IAP-1 (human, UniProt Q13490 1-618); assay: legend of Figure 8: anti-myc immunoprecipitation, anti-FLAG immunoblot
T3 construct: also called pcDNA3myc-c-IAP-1; pcDNA3-myc-IAP-1; not shown: Myc tag of pcDNA3myc

[13] = biological target: T4, myc-tagged c-IAP-2 (human, UniProt Q13489 1-604); assay: as above
T4 construct: also called pcDNA3myc-c-IAP-2; pcDNA3-myc-c-IAP-2; not shown: Myc tag of pcDNA3myc

[14] = biological target: B2; assay: GST pull-down on glutathione-SEPHAROSE, immunoblot

Molecule: N-benzyloxycarbonyl-Val-Ala-Asp fluoromethylketone [zVAD-fmk]
concentration to completely abolish processing of pro-caspase-9 [1]: at least 5 µM
apoptotic cells [2]: about 5%

Ki [3]: 26 nM
Molecule: GST-c-IAP-2 (from UniProt Q13489 1-604)

Molecule: B1
Ki [3]: 160 nM
Ki [4]: 330 nM

Molecule: B2
binding result [5]: binds
binding result [6]: binds
binding result [7]: binds

Molecule: B3
binding result [8]: binds
binding result [9]: binds

Molecule: B4
binding result [10]: binds
binding result [11]: binds

Molecule: B5
binding result [12]: binds
binding result [13]: binds

Molecule: B6
binding result [14]: no binding

Molecule: B7
Ki [3]: 238 nM
Ki [4]: 260 nM
